From CN116178550A (BEIJING DONGFANG BIOTECH CO LTD, dated 2023)

Key:
[1] = biological target: T1, 人单核细胞白血病细胞(THP-1)表面LILRB4 (human, UniProt Q8NHJ6 22-448); test: cell-based or functional assay
[2] = biological target: T2, LILRB4抗原 (人LILRB4蛋白胞外段) (human, UniProt Q8NHJ6 22-259); test: ELISA, LILRB4 coated 100 ng/well, Goat Anti-Mouse IgG-HRP
T2 construct: extracellular domain; also called 白细胞免疫球蛋白样受体亚家族B成员4

[3] = biological target: T3, LILRA5 (UniProt A6NI73 42-268, limits assumed); test: ELISA, protein coated 100 ng/well, Goat Anti-Mouse IgG-HRP
[4] = biological target: T4, LILRB1 (UniProt Q8NHL6 24-461, limits assumed); test: as above
[5] = biological target: T5, LILRB3 (UniProt O75022 24-443, limits assumed); test: as above
[6] = biological target: T6, LILRB2 (UniProt Q8N423 22-460, limits assumed); test: as above
[7] = biological target: T7, LILRA2 (UniProt Q8N149 24-449, limits assumed); test: as above
[8] = biological target: T8, LILRA4 (UniProt P59901 24-446, limits assumed); test: as above
[9] = biological target: T9, LILRA1 (UniProt O75019 17-461, limits assumed); test: as above
[10] = biological target: T10, LILRB5 (UniProt O75023 24-458, limits assumed); test: as above
[11] = biological target: T11, LILRA6 (UniProt Q6PI73 24-447, limits assumed); test: as above
[12] = biological target: T12, LILRA3 (UniProt Q8N6C8 24-439); test: as above
[13] = biological target: T1, 人单核细胞白血病细胞(THP-1)表面LILRB4; test: flow cytometry on THP-1 cells, competition with 0.4 μg/mL FITC-labelled ApoE
[14] = biological target: T3, LILRA5; test: ELISA, protein coated 100 ng/well, MF-I at 50 μg/mL
[15] = biological target: T4, LILRB1; test: as above
[16] = biological target: T5, LILRB3; test: as above
[17] = biological target: T2, LILRB4抗原 (人LILRB4蛋白胞外段); test: as above
[18] = biological target: T6, LILRB2; test: as above
[19] = biological target: T7, LILRA2; test: as above
[20] = biological target: T8, LILRA4; test: as above
[21] = biological target: T9, LILRA1; test: as above
[22] = biological target: T10, LILRB5; test: as above
[23] = biological target: T11, LILRA6; test: as above
[24] = biological target: T12, LILRA3; test: as above

T5 sequence (O75022 24-443 limits assumed): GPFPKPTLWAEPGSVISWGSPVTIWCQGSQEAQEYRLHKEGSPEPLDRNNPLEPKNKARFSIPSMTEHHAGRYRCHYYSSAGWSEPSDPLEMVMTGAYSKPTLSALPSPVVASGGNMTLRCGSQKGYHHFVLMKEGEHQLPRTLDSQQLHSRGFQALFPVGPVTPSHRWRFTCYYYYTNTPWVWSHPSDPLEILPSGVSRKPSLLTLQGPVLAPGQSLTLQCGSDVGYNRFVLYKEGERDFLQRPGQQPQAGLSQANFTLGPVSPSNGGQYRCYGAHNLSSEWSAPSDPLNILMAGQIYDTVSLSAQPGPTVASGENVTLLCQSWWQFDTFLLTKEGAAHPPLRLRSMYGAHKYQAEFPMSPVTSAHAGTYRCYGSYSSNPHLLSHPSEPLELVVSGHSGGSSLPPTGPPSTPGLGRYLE
T8 sequence (P59901 24-446 limits assumed): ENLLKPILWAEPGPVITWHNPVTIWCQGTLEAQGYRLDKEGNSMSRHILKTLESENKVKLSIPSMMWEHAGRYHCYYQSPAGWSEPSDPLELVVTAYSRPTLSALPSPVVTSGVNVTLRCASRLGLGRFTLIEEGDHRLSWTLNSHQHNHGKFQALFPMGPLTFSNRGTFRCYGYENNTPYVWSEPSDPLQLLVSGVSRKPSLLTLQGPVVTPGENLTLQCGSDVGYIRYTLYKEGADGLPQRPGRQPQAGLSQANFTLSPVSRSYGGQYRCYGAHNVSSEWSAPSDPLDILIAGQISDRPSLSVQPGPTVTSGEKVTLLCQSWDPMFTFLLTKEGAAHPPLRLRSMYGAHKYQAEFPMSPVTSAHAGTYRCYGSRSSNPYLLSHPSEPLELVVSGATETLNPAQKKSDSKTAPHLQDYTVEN
T10 sequence (O75023 24-458 limits assumed): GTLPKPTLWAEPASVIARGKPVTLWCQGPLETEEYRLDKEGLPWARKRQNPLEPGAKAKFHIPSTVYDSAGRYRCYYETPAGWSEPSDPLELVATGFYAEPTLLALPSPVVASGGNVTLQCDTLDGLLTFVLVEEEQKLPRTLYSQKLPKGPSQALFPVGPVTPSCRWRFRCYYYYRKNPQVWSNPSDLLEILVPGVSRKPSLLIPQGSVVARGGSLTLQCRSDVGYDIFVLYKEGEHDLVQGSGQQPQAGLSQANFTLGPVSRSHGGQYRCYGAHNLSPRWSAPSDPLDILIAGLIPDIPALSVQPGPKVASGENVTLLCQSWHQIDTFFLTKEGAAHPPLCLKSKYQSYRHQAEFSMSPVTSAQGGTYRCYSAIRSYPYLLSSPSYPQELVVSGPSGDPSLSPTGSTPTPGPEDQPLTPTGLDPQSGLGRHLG
T11 sequence (Q6PI73 24-447 limits assumed): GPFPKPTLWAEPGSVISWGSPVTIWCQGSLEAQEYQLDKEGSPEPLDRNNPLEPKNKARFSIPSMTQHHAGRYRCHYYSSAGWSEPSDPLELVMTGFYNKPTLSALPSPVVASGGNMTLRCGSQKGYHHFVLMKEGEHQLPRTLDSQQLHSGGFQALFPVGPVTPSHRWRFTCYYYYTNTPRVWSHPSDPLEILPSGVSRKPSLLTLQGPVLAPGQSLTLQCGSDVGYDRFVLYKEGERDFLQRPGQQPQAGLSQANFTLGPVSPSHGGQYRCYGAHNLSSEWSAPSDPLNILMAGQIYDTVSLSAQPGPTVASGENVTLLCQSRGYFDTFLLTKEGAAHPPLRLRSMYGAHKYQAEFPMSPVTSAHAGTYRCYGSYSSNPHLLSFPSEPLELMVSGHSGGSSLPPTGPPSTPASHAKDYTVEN
T6 sequence (Q8N423 22-460 limits assumed): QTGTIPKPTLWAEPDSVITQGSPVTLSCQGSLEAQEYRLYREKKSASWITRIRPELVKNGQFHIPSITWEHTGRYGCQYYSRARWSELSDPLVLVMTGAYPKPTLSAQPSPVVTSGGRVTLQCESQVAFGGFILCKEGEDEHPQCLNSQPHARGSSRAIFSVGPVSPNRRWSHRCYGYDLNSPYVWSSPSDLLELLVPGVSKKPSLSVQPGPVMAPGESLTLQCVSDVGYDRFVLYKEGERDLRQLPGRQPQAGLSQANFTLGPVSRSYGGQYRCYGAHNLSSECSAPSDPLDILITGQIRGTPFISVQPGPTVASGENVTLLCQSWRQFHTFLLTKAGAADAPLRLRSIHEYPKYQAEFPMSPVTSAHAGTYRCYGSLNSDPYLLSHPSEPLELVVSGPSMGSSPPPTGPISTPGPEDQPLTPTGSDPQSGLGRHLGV
T4 sequence (Q8NHL6 24-461 limits assumed): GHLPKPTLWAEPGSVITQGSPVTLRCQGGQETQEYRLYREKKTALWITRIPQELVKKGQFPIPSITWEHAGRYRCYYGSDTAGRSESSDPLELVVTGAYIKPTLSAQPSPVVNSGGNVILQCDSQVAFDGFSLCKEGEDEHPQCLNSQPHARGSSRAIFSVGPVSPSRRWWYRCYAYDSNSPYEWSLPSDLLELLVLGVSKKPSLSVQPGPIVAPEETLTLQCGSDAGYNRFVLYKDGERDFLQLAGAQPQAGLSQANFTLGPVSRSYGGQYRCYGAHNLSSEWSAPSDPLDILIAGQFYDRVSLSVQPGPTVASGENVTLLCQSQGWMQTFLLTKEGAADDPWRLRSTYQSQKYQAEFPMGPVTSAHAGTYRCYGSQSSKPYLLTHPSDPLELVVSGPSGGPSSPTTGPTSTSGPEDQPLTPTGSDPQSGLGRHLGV
T7 sequence (Q8N149 24-449 limits assumed): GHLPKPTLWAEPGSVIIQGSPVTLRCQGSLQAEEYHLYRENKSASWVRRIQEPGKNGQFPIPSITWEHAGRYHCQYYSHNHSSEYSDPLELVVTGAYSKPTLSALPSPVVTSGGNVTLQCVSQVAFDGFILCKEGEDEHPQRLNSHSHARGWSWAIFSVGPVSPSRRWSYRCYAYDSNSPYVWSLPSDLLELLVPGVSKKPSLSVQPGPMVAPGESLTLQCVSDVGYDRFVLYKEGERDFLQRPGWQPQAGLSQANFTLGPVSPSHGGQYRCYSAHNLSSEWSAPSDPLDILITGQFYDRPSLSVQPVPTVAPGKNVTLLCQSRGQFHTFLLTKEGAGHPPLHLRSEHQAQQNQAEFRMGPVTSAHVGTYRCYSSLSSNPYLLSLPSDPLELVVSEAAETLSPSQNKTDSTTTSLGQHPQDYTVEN
T9 sequence (O75019 17-461 limits assumed): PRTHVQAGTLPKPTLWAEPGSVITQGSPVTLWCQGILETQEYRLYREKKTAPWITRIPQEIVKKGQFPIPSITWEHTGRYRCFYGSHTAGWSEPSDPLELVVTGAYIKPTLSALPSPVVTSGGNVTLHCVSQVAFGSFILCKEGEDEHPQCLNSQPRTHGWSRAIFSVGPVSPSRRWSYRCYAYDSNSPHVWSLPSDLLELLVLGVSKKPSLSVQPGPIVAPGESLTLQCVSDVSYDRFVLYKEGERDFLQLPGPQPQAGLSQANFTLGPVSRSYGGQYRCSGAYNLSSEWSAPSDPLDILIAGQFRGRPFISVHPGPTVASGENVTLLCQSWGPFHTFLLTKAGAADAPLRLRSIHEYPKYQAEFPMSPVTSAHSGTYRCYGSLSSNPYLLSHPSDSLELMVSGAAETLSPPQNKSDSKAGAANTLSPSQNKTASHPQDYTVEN
T3 sequence (A6NI73 42-268 limits assumed): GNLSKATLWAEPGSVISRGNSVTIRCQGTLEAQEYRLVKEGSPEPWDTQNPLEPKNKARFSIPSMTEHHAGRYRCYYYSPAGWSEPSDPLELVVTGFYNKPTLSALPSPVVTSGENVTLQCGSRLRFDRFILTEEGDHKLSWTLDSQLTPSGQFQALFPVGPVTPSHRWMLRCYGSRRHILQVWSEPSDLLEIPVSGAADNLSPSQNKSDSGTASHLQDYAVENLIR
T12 sequence (Q8N6C8 24-439 limits assumed): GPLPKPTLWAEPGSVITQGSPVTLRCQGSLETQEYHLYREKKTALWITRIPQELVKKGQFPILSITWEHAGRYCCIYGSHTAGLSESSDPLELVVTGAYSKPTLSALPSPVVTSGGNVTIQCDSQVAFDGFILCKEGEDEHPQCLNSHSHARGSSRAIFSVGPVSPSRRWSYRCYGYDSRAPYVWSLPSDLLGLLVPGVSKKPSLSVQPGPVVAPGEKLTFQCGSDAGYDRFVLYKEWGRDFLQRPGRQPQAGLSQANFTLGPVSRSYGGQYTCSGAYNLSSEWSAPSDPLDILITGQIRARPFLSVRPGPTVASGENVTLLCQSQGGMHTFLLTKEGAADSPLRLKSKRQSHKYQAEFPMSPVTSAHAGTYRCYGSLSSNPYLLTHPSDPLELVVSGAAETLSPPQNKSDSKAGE

B1: 抗LILRB4单克隆抗体MF-I (full antibody, mouse IgG1 heavy chain constant region and mouse Ck light chain constant region) (antibody, V domains shown)
VH: QVQLEQSGAELVKPGASVKLSCKASGYTFTNYWMHWVKQRHGQGLEWIGEINPSNGRTNYNEKFKTKATLTVDKSSSTAYMQLSSLTSEDSAVYYCAKNYRYDDWAMDYWGQGTSVTVSS
VL: DIVLTQSPSSMYASLGERVTITCKASEDINSYLSWFQQKPGKSPKTLIYRANRLVDGVPSRFSGSGSGQDYSLTISSLEYEDMGIYYCLQYDEIPPTFGAGTKLELKA
notes: also called MF-Ⅰ
IC50(μg/mL), 抑制THP-1分泌ARG1 (arginase activity in the supernatant, with 0.5 μg/mL ApoE) [1]: 367 µg/mL | EC50 [2]: 0.406 µg/mL | binding result [3]: no binding (tested: 50μg/mL) | binding result [4]: no binding (tested: 50μg/mL) | binding result [5]: no binding (tested: 50μg/mL) | binding result [6]: no binding (tested: 50μg/mL) | binding result [7]: no binding (tested: 50μg/mL) | binding result [8]: no binding (tested: 50μg/mL) | binding result [9]: no binding (tested: 50μg/mL) | binding result [10]: no binding (tested: 50μg/mL) | binding result [11]: no binding (tested: 50μg/mL) | binding result [12]: no binding (tested: 50μg/mL) | IC50 [13]: 10.5 µg/mL | OD 450nm/630nm [14]: 0.012 | OD 450nm/630nm [15]: 0.123 | OD 450nm/630nm [16]: 0.18 | OD 450nm/630nm [17]: 2.3 | OD 450nm/630nm [18]: 0.213 | OD 450nm/630nm [19]: 0.036 | OD 450nm/630nm [20]: 0.014 | OD 450nm/630nm [21]: 0.111 | OD 450nm/630nm [22]: 0.012 | OD 450nm/630nm [23]: 0.112 | OD 450nm/630nm [24]: 0.064
